Data on 42 sequences can be found in the Immune Epitope Database (IEDB).

Bounds are passed on as bounds.

In experiment [1] the target is HLA-A*31:01. Description: IEDB peptide-MHC binding, purified MHC/direct/fluorescence; filed as Kd, often an IC50 or EC50 that approximates it; ≥ and ≤ were set here for values at or beyond the usual limits of such assays.
Experiment [2] has as its target HLA-B*27:05. The experiment is described as above.
Experiment [3] has as its target HLA-A*33:01. Briefly: IEDB peptide-MHC binding, purified MHC/competitive/radioactivity; filed as Kd, often an IC50 or EC50 that approximates it; ≥ and ≤ were set here for values at or beyond the usual limits of such assays. To be noted: source organism: SARS coronavirus Tor2.
Experiment [4] has as its target HLA-A*68:01. The experiment is described as above. To be noted: source organism: SARS coronavirus Tor2.
The target of experiment [5] is HLA-B*51:01. The description is as above.
Experiment [6] concerns the target HLA-A*02:01. Briefly: IEDB peptide-MHC binding, purified MHC/competitive/fluorescence; ≥ and ≤ were set here for values at or beyond the usual limits of such assays.
In experiment [7] the target is HLA-A*02:01. Description: IEDB peptide-MHC binding, purified MHC/competitive/fluorescence; filed as Kd, often an IC50 or EC50 that approximates it; ≥ and ≤ were set here for values at or beyond the usual limits of such assays.
In experiment [8] the target is HLA-B*15:01. Briefly: IEDB peptide-MHC binding, purified MHC/competitive/radioactivity; filed as Kd, often an IC50 or EC50 that approximates it; ≥ and ≤ were set here for values at or beyond the usual limits of such assays. Conditions: source organism: Vaccinia virus WR.
The target in experiment [9] is HLA-A*03:01. Briefly: IEDB peptide-MHC binding, purified MHC/direct/fluorescence; filed as Kd, often an IC50 or EC50 that approximates it; ≥ and ≤ were set here for values at or beyond the usual limits of such assays.
Experiment [10] concerns the target HLA-A*11:01. The description is as above. To be noted: source organism: Orthohantavirus hantanense.
Experiment [11] concerns the target HLA-B*07:02. Described as above. To be noted: source organism: Orthohantavirus hantanense.
The target of experiment [12] is HLA-B*15:01. The experiment is described as above. To be noted: source organism: Orthohantavirus hantanense.
Experiment [13] concerns the target HLA-A*32:01. Briefly: IEDB peptide-MHC binding, purified MHC/competitive/radioactivity; filed as Kd, often an IC50 or EC50 that approximates it; ≥ and ≤ were set here for values at or beyond the usual limits of such assays.
Experiment [14] has as its target HLA-A*24:02. Described as above.
The target in experiment [15] is HLA-A*01:01. Described as above.
Experiment [16] addresses HLA-A*26:01. Described as above.
For experiment [17], the target named is HLA-A*29:02. The experiment is described as above.
In experiment [18] the target is HLA-A*30:01. The description is as above.
The target in experiment [19] is HLA-A*30:02. The experiment is described as above.
The target of experiment [20] is HLA-B*18:01. Description: IEDB peptide-MHC binding, purified MHC/direct/fluorescence; filed as Kd, often an IC50 or EC50 that approximates it; ≥ and ≤ were set here for values at or beyond the usual limits of such assays.
For experiment [21], the target named is HLA-B*40:01. The description is as above. To be noted: source organism: Mammarenavirus lassaense.
For experiment [22], the target named is HLA-B*57:01. The experiment is described as above. Conditions: source organism: Vibrio alginolyticus 12G01.
Experiment [23] has as its target HLA-B*58:01. Described as above. To be noted: source organism: Vibrio alginolyticus 12G01.
The mark [24] stands for this setting: source organism: Dengue virus 1 Brazil/97-11/1997.
Setting [25] is: source organism: Vaccinia virus.
The mark [26] stands for this setting: source organism: Orthohantavirus hantanense.
Setting [27] is: source organism: Dengue virus 3 Martinique/1243/1999.
The mark [28] stands for this setting: source organism: Vaccinia virus WR.
Where [29] appears, read: source organism: Mammarenavirus choriomeningitidis.
Setting [30] is: source organism: Mammarenavirus brazilense.
The mark [31] stands for this setting: source organism: Vibrio vulnificus.
Where [32] appears, read: source organism: Sudan ebolavirus.

For ATFSVPMEK, the Kd in experiment [1] (source organism: SARS-CoV1) was 141 nM; in experiment [2] (source organism: SARS-CoV1) it was 19000 nM; in [3], 14500 nM; in experiment [4], 0.161 nM.

For the sequence LAIPPTAGI, the Kd in experiment [5] (setting [24]) is 393 nM.

Take QVCIDILRS: in experiment [6] (setting [25]), the IC50 was not below 97100 nM.

TLFIGSHVV had a Kd in experiment [7] (source organism: human gammaherpesvirus 4) of 1.4 nM.

Take ILKKLSPYF: in [8], the Kd stood at 1.18 nM.

With RLKPVGSAY, the Kd in experiment [9] (setting [26]) is 214 nM; in [10] it was 3630 nM; in experiment [1] (setting [26]) it was 401 nM; in [11] it was 676 nM; in experiment [12], 357 nM; in experiment [2] (setting [26]) it was 8420 nM.

For the sequence ATYEPDVDL, the Kd in experiment [13] (source organism: Dengue virus 2 Peru/IQT2913/1996) was found to be 7390 nM.

LAAIANQAV: the Kd in experiment [5] (setting [27]) worked out at 1360 nM.

Turning to RTNNAELDF, the dissociation constant Kd in experiment [13] (setting [28]) was 131 nM.

Turning to KIEIERKKL, the Kd in [7] (setting [28]) was found to be 422 nM.

With LYAVATTIL, the Kd in experiment [14] (source organism: Dengue virus 4 Philippines/H241/1956) is 79.5 nM.

On to VFFTFVLLL, for which the Kd in experiment [14] (setting [27]) is 258 nM.

Regarding RIYSDPLAL, the Kd in experiment [13] (source organism: Dengue virus 2 Jamaica/1409/1983) was 14100 nM.

For the sequence KTGESSRSY, the Kd in experiment [15] (setting [29]) is 3660 nM; in experiment [16] (setting [29]) it was not below 77900 nM; in [17] (setting [29]), 16700 nM; in experiment [18] (setting [29]), 1090 nM; in experiment [19] (setting [29]), 63.3 nM; in experiment [13] (setting [29]), 14300 nM.

On to YSDPLALRE, for which the dissociation constant (Kd) in [15] (setting [24]) was 262 nM.

VSETQHGTIL: the dissociation constant Kd in [15] (setting [27]) is not below 70400 nM.

On to RTYGLRNSL, for which, in [13] (setting [28]), the Kd was found to be 0.626 nM.

HSIKRNYPY: the Kd in experiment [15] (setting [30]) amounted to 53 nM; in experiment [16] (setting [30]) it was 660 nM; in experiment [17] (setting [30]), 262 nM; in experiment [18] (setting [30]), 141 nM; in [19] (setting [30]), 42.3 nM; in [13] (setting [30]), 1720 nM.

As for FNYCEGTTVV, in experiment [5] (setting [27]), the Kd came out at 1220 nM.

With QEKWMTGRM, the Kd in [20] (source organism: Yellow fever virus) was 3050 nM.

For the sequence MQYMTIQQK, the Kd was 203 nM in experiment [9] (setting [31]) and 346 nM in [1] (setting [31]).

ILTLANWCL: the Kd in [7] (source organism: Escherichia coli O139:H28 str. E24377A) was found to be 0.2 nM.

On to MLVCGDDLV, for which, in experiment [6] (source organism: Hepatitis C virus genotype 1), the IC50 was determined as 5000 nM.

KIKDVSYND yielded an IC50 in experiment [6] (setting [25]) not below 571000 nM.

Sequence KIDTTHVSKV came in with a Kd in experiment [7] (source organism: Vaccinia virus Tian Tan) of 206 nM.

With KVLFLQQSI, in experiment [13] (setting [28]), the Kd was 0.704 nM.

In the case of TLCDMIKGT, the IC50 in experiment [6] (setting [25]) was 23000 nM.

In the case of KLITFLFVI, the Kd in [13] (setting [28]) is 0.409 nM.

Sequence WAFWETKKN had an IC50 in [6] (source organism: Zaire ebolavirus) not below 212000 nM.

Turning to NETGLELTL, the values for the Kd in [20] (source organism: Mammarenavirus lassaense) and in [21] were 16.7 nM and 19 nM, respectively.

Consider GLCTLVAM, for which the Kd in [7] (source organism: Human herpesvirus 4 strain B95-8) came out at 2370 nM.

Take TSLTQKVVIF: the Kd in experiment [15] (setting [27]) stood at 8960 nM.

For QLLLQKYPP, the IC50 in experiment [6] (setting [25]) was not below 93600 nM.

With VSEPELCLL, the Kd in experiment [22] and in experiment [23] was not below 20000 nM each time.

Take GTLEFTPID: the half-maximal inhibitory concentration (IC50) in [6] (setting [28]) is not below 132000 nM.

IIHDFIDNP returned an IC50 in experiment [6] (setting [32]) not below 85400 nM.

Take PLGVVTNST: in experiment [6] (setting [32]), the IC50 is not below 114000 nM.

Regarding IALFLAHAI, the Kd in experiment [5] (setting [24]) worked out at 135 nM.

Consider VIMEYHLLF, for which, in [13] (source organism: Vaccinia virus Copenhagen), the Kd is not below 77800 nM.

In the case of KSWGKAKII, the Kd in experiment [13] (setting [24]) turned out to be 47.4 nM.

Turning to MTMNIVNFF, the Kd in experiment [13] (setting [28]) was 1.93 nM.

In the case of LMDMITLSL, the Kd in experiment [13] (setting [28]) turned out to be 29.7 nM.

As a reminder, the Kd is the constant that tells how readily two partners part at equilibrium. One may read the IC50 as the concentration needed to halve the response being measured. Read a high IC50 as lower potency.
